Patent US20220298260A1 (MYTHIC THERAPEUTICS, published 2022)
Changes are numbered by the printed parent chain.

B1: MYT2237 (antibody, V domains shown)
VH: EVQLVESGGGLVQPGGSLRLSCAASGFNIRTQSIHWVRQAPGKGLEWIGDIHPIDGITDYADSVKGRFTISADTSKNTAYLQMNSLRAEDTAVYYCARGSWSWPSGMDYYLDYWGQGTLVTVSS
VL: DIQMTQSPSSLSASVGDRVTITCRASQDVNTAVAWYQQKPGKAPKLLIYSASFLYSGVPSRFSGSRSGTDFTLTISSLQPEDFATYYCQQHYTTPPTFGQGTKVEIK
notes: IgG
B2: MYT2267 (antibody, V domains shown)
VH: B1 VH with H52F, D112H
VL: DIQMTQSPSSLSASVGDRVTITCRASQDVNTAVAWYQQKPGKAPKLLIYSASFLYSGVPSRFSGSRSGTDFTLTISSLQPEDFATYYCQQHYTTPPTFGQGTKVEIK
notes: IgG
B3: MYT4497 (antibody, V domains shown)
VH: B1 VH with H52F
VL: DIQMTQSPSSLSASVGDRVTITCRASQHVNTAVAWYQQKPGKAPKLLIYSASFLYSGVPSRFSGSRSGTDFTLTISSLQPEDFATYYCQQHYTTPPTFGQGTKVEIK
notes: IgG
B4: MYT4495 (antibody, V domains shown)
VH: B1 VH with H52F
VL: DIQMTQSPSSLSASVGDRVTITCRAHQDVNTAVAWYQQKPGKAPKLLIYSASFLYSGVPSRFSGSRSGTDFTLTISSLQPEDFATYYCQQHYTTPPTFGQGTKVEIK
notes: IgG
B5: MYT4494 (antibody, V domains shown)
VH: B1 VH with H52F
VL: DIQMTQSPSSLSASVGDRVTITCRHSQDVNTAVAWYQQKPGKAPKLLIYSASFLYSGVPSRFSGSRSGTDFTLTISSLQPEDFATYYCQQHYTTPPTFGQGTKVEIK
notes: IgG
B6: MYT4508 (antibody, V domains shown)
VH: B1 VH with H52F
VL: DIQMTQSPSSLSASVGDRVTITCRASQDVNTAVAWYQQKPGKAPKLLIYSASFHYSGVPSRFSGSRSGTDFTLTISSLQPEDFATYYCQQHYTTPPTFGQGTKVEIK
notes: IgG
B7: MYT4493 (antibody, V domains shown)
VH: B1 VH with H52F
VL: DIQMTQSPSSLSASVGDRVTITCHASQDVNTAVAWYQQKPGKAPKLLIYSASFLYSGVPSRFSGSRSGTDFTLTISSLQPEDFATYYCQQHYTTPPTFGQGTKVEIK
notes: IgG
B8: MYT2243 (antibody, V domains shown)
VH: B1 VH with H52F, T58H
VL: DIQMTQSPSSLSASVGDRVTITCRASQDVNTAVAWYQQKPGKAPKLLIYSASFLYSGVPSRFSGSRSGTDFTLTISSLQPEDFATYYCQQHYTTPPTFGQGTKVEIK
notes: IgG
B9: MYT2265 (antibody, V domains shown)
VH: B1 VH with H52F, Y110H
VL: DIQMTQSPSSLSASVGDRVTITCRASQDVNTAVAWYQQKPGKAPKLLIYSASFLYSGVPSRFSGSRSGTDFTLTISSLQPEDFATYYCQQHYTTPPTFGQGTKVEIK
notes: IgG
B10: MYT4499 (antibody, V domains shown)
VH: B1 VH with H52F
VL: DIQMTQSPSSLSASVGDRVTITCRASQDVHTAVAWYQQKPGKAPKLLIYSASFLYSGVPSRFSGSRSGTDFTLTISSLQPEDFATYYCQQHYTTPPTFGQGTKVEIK
notes: IgG
B11: MYT2240 (antibody, V domains shown)
VH: B1 VH with H52F, D55H
VL: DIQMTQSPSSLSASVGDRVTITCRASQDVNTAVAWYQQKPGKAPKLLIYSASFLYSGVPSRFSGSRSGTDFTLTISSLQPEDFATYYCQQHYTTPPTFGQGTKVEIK
notes: IgG
B12: MYT2263 (antibody, V domains shown)
VH: B1 VH with H52F, D108H
VL: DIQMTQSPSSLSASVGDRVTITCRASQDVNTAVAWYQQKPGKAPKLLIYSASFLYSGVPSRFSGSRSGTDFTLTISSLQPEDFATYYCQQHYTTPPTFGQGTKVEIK
notes: IgG
B13: MYT4511 (antibody, V domains shown)
VH: B1 VH with H52F
VL: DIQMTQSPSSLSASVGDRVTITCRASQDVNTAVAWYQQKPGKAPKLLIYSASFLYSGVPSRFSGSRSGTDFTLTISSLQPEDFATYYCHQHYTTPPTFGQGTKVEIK
notes: IgG
B14: MYT4510 (antibody, V domains shown)
VH: B1 VH with H52F
VL: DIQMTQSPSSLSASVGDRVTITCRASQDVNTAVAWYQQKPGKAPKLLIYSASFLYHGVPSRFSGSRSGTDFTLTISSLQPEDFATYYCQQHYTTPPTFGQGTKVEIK
notes: IgG
B15: MYT2239 (antibody, V domains shown)
VH: B1 VH with H52F, I54H
VL: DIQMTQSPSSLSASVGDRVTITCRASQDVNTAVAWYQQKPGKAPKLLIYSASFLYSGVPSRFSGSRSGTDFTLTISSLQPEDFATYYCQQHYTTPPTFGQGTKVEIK
notes: IgG
B16: MYT2255 (antibody, V domains shown)
VH: B1 VH with H52F, S100H
VL: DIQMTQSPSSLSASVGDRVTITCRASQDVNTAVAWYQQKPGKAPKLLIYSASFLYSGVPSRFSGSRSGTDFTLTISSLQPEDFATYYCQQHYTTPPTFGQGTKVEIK
notes: IgG
B17: MYT2260 (antibody, V domains shown)
VH: B1 VH with H52F, S105H
VL: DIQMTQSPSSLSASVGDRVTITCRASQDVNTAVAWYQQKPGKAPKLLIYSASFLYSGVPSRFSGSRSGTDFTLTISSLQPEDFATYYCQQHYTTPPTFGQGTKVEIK
notes: IgG
B18: MYT2251 (antibody, V domains shown)
VH: B1 VH with H52F, G66H
VL: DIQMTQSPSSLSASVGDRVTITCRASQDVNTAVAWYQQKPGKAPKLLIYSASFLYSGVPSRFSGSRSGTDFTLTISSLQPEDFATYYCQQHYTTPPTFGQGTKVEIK
notes: IgG
B19: MYT2248 (antibody, V domains shown)
VH: B1 VH with H52F, S63H
VL: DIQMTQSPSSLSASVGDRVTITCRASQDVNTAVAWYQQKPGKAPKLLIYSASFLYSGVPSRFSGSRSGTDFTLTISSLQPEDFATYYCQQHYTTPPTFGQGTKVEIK
notes: IgG
B20: MYT4500 (antibody, V domains shown)
VH: B1 VH with H52F
VL: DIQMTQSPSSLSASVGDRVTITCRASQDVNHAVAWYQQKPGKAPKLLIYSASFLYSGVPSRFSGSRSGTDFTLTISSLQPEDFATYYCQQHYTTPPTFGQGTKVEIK
notes: IgG
B21: MYT2247 (antibody, V domains shown)
VH: B1 VH with H52F, D62H
VL: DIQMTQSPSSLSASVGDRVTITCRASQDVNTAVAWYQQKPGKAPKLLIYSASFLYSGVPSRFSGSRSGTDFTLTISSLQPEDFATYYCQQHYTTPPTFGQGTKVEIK
notes: IgG
B22: MYT2250 (antibody, V domains shown)
VH: B1 VH with H52F, K65H
VL: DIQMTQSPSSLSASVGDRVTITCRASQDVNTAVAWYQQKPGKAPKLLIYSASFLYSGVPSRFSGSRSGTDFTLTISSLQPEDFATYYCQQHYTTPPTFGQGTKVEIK
notes: IgG
B23: MYT4509 (antibody, V domains shown)
VH: B1 VH with H52F
VL: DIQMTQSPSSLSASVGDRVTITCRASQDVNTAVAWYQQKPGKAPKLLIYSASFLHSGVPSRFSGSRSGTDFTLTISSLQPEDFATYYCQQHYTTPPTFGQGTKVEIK
notes: IgG
B24: MYT2246 (antibody, V domains shown)
VH: B1 VH with H52F, A61H
VL: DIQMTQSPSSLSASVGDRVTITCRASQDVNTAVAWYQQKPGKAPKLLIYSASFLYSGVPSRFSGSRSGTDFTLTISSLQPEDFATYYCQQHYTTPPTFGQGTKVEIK
notes: IgG
B25: MYT4506 (antibody, V domains shown)
VH: B1 VH with H52F
VL: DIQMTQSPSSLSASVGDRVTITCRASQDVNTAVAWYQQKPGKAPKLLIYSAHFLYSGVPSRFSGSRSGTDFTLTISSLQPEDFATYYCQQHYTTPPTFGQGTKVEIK
notes: IgG
B26: MYT4504 (antibody, V domains shown)
VH: B1 VH with H52F
VL: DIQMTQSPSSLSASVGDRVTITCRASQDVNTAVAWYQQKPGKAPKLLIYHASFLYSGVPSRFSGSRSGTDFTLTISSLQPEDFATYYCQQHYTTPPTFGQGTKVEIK
notes: IgG
B27: MYT4496 (antibody, V domains shown)
VH: B1 VH with H52F
VL: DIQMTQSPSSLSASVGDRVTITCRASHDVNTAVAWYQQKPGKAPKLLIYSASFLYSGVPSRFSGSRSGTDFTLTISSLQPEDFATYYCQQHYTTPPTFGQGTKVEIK
notes: IgG
B28: MYT2253 (antibody, V domains shown)
VH: B1 VH with H52F, R98H
VL: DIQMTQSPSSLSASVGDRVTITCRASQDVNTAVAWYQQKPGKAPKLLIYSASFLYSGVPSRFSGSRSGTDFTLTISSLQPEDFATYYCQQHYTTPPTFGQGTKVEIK
notes: IgG
B29: MYT2264 (antibody, V domains shown)
VH: B1 VH with H52F, Y109H
VL: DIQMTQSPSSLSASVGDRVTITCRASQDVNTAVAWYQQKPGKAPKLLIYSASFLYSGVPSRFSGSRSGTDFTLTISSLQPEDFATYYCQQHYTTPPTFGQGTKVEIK
notes: IgG
B30: MYT2242 (antibody, V domains shown)
VH: B1 VH with H52F, I57H
VL: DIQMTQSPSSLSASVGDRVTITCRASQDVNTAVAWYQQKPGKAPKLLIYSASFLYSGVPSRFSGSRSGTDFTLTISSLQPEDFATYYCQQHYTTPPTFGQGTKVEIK
notes: IgG
B31: MYT4507 (antibody, V domains shown)
VH: B1 VH with H52F
VL: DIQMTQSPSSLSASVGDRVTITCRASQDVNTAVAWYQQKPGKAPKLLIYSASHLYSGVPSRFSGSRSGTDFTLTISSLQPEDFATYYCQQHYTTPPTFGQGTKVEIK
notes: IgG
B32: MYT2249 (antibody, V domains shown)
VH: B1 VH with H52F, V64H
VL: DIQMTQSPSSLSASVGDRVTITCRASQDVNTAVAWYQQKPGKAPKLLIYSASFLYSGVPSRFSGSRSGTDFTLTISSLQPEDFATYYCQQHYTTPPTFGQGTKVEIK
notes: IgG
B33: MYT2256 (antibody, V domains shown)
VH: B1 VH with H52F, W101H
VL: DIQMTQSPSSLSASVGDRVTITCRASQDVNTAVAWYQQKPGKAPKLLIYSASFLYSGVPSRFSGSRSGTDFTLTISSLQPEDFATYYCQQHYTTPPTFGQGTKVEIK
notes: IgG
B34: MYT4502 (antibody, V domains shown)
VH: B1 VH with H52F
VL: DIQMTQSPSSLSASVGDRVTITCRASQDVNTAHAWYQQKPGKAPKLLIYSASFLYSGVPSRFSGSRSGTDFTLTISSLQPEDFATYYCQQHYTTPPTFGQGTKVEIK
notes: IgG
B35: MYT2266 (antibody, V domains shown)
VH: B1 VH with H52F, L111H
VL: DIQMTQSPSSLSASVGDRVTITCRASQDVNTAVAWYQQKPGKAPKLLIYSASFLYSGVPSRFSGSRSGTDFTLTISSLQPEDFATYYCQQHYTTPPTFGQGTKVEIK
notes: IgG
B36: MYT2238 (antibody, V domains shown)
VH: B1 VH with H52F, P53H
VL: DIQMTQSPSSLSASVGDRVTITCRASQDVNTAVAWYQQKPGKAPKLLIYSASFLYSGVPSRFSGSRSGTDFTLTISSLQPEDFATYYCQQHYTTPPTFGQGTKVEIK
notes: IgG
B37: MYT2258 (antibody, V domains shown)
VH: B1 VH with H52F, W103H
VL: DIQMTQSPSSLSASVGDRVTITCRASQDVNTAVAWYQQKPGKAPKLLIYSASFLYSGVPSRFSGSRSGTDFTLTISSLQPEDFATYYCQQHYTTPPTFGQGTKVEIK
notes: IgG
B38: MYT2245 (antibody, V domains shown)
VH: B1 VH with H52F, Y60H
VL: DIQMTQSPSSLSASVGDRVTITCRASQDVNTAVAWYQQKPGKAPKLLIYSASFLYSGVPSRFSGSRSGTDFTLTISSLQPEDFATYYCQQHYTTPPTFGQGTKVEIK
notes: IgG
B39: MYT4498 (antibody, V domains shown)
VH: B1 VH with H52F
VL: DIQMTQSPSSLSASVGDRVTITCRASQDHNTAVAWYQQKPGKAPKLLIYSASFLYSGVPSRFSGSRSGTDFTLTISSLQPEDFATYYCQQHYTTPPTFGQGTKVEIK
notes: IgG
B40: MYT2262 (antibody, V domains shown)
VH: B1 VH with H52F, M107H
VL: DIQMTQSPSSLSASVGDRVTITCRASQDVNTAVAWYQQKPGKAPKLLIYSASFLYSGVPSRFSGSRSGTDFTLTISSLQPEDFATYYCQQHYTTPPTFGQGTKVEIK
notes: IgG
B41: MYT2268 (antibody, V domains shown)
VH: B1 VH with H52F, Y113H
VL: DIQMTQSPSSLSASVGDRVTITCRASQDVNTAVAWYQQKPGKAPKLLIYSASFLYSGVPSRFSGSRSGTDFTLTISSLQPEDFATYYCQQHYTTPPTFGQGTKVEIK
notes: IgG
B42: MYT2257 (antibody, V domains shown)
VH: B1 VH with H52F, S102H
VL: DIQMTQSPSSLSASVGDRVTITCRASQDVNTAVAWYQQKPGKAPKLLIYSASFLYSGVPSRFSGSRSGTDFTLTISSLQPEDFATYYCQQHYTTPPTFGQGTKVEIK
notes: IgG
B43: MYT2241 (antibody, V domains shown)
VH: B1 VH with H52F, G56H
VL: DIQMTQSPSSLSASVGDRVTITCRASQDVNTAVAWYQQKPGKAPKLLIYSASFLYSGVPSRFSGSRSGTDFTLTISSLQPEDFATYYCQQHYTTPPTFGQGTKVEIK
notes: IgG

These binders were tested against T1, FOLR1 (R&D Systems, Cat #5646-FR) (human, UniProt P15328 25-233) (assay: BLI, IgG on anti-human Fc sensor, 50 nM FOLR1).
T1 construct: Bought soluble protein; also called Folate Receptor 1
T1 sequence (P15328 25-233 limits assumed): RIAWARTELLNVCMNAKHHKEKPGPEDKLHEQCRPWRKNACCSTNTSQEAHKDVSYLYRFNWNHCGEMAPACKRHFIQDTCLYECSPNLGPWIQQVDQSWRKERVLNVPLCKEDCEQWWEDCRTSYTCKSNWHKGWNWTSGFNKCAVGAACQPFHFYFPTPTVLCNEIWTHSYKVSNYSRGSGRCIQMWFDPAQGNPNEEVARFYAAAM

Binding result, binds:
B1
B2
B3
B4
B5
B6
B7
B8
B9
B10
B11
B12
B13
B14
B15
B16
B17
B18
B19
B20
B21
B22
B23
B24
B25
B26
B27
B28
B29
B30
B31
B32
B33
B34
B35
B36
B37
B38
B39
B40
B41
B42
B43
